Consider 8 molecules from article PMC3637252, “Structural Basis of the Induced-Fit Mechanism of 1,4-Dihydroxy-2-Naphthoyl Coenzyme A Synthase from the Crotonase Fold Superfamily” (PLoS ONE, 2013).

As usually defined, the Km is the concentration of substrate that gives half-maximal velocity. The kcat is the number of substrate molecules converted per active site and unit of time at saturation. In general, kcat/Km refers to the turnover number divided by the Michaelis constant. A word on the stoichiometry N: it is a count of units in the complex or per binding partner.

The target in data set [1] is T1, scMenB (Synechocystis sp. PCC 6803, UniProt P73495).
T1 construct: gene menB; recombinant, purified to homogeneity; homohexamer
T1 sequence (P73495 1-275): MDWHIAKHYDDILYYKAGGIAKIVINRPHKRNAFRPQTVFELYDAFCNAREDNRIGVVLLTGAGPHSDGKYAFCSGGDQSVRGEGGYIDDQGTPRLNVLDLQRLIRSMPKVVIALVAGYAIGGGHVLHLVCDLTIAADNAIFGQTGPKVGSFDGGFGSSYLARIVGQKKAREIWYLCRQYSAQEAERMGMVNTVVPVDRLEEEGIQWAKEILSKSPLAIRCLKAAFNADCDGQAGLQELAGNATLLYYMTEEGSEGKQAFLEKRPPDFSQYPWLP
The experiment in a line: X-ray crystal structure, […] Å. It counts as binding. The settings on record: pH 6.0.

Data set [2] concerns the target T2, ecMenB (Escherichia coli, UniProt P0ABU0).
T2 construct: gene menB; recombinant; homohexamer, active site formed by two subunits across the trimer-trimer interface
The experiment in a line: X-ray crystal structure, […] Å. Format: binding. Conditions: co-crystal, pH 5.5; active site, product analog; chloride at the bicarbonate site.

For data set [3], the target named is T1, scMenB. The experiment in a line: X-ray crystal structure, […] Å. Format: binding. The settings on record: co-crystal, pH 5.70; active site, product analog; chloride at the bicarbonate site.
Substrate in data set [4]: CC(C)(COP(=O)(O)OP(=O)(O)OC[C@H]1O[C@@H](n2cnc3c(N)ncnc32)[C@H](O)[C@@H]1OP(=O)(O)O)[C@@H](O)C(=O)NCCC(=O)NCCSC(=O)CCC(=O)c1ccccc1C(=O)O
The data set can be described thus: purified protein. The settings on record: 200 mM phosphate pH 7.0, 20 mM NaHCO3, OSB-CoA made in situ from SHCHC with MenC and MenE. Format: biochemical, Escherichia coli.

Data set [5] deals with the molecule itself. The experiment in a line: crystal structure; ecMenB co-crystallised with HNA-CoA; hanging drop, 294 K; 200 mM (NH4)2SO4, 23% PEG 3,350, 100 mM Bis-Tris pH 5.5; protein 10 mg/ml with 10 mM NaHCO3, 10 mM HNA-CoA, 20 mM KCl; 1.84 A.
Data set [6] deals with the molecule itself. The experiment in a line: crystal structure; scMenB (5 mg/ml) co-crystallised with 5 mM HNA-CoA; 0.15 M ammonium acetate, 0.3 M ammonium sulfate, 16% PEG 3350, 100 mM Bis-Tris pH 5.70; 2.35 A.

For `CC(C)(COP(=O)(O)OP(=O)(O)OC[C@H]1O[C@@H](n2cnc3c(N)ncnc32)[C@H](O)[C@@H]1OP(=O)(O)O)[C@@H](O)C(=O)NCCC(=O)NCCSC(=O)c1ccccc1O` [salicyloyl-CoA], in data set [1] (co-crystal, active site, product analog, bicarbonate bound), the “X-ray crystal structure, 2.00 Å” value was “structures of the yellowish scMenB: HNA-CoA and colorless scMenB: SA-CoA crystals were also solved”.
With `CC(C)(COP(=O)(O)OP(=O)(O)OC[C@H]1O[C@@H](n2cnc3c(N)ncnc32)[C@H](O)[C@@H]1OP(=O)(O)O)[C@@H](O)C(=O)NCCC(=O)NCCSC(=O)c1ccc2ccccc2c1O` [1-hydroxy-2-naphthoyl-CoA], the “X-ray crystal structure, 1.84 Å” value in data set [2] is reported as “The ecMenB:HNA-CoA complex structure was solved by molecular replacement”. Further, the “X-ray crystal structure, 2.35 Å” value in data set [3] is “structures of the yellowish scMenB: HNA-CoA and colorless scMenB: SA-CoA crystals were also solved”.
For the molecule `O=C(O)O` [bicarbonate], the “X-ray crystal structure, 2.00 Å” value in data set [1] (ternary complex with SA-CoA, bicarbonate site) is recorded as “a bicarbonate ion is found in the place of the chloride ion”.

B1: ecMenB (Escherichia coli K-12; F270A) (protein)
chain: MIYPDEAMLYAPVEWHDCSEGFEDIRYEKSTDGIAKITINRPQVRNAFRPLTVKEMIQALADARYDDNIGVIILTGAGDKAFCSGGDQKVRGDYGGYKDDSGVHHLNVLDFQRQIRTCPKPVVAMVAGYSIGGGHVLHMMCDLTIAADNAIFGQTGPKVGSFDGGWGASYMARIVGQKKAREIWFLCRQYDAKQALDMGLVNTVVPLADLEKETVRWCREMLQNSPMALRCLKAALNADCDGQAGLQELAGNATMLFYMTEEGQEGRNAANQKRQPDFSKFKRNP
notes: recombinant; homohexamer, active site formed by two subunits across the trimer-trimer interface
Regarding B1, in data set [4], the Km came out at 19.7 ± 3.9 µM, the catalytic constant (kcat) came to 0.0035 ± 0.000167 s⁻¹ and the catalytic efficiency (kcat/Km) stood at 180 ± 10 M⁻¹ s⁻¹.

B2: ecMenB (Escherichia coli K-12; K89A) (protein)
chain: MIYPDEAMLYAPVEWHDCSEGFEDIRYEKSTDGIAKITINRPQVRNAFRPLTVKEMIQALADARYDDNIGVIILTGAGDKAFCSGGDQAVRGDYGGYKDDSGVHHLNVLDFQRQIRTCPKPVVAMVAGYSIGGGHVLHMMCDLTIAADNAIFGQTGPKVGSFDGGWGASYMARIVGQKKAREIWFLCRQYDAKQALDMGLVNTVVPLADLEKETVRWCREMLQNSPMALRCLKAALNADCDGQAGLQELAGNATMLFYMTEEGQEGRNAFNQKRQPDFSKFKRNP
notes: as for B1
For the molecule B2, in data set [4], the Km worked out at 43.3 ± 2.0 µM, the kcat was found to be 0.0383 ± 0.00133 s⁻¹ and the kcat/Km is 890 ± 30 M⁻¹ s⁻¹.

B3: 1,4-dihydroxy-2-naphthoyl coenzyme A (DHNA-CoA) synthase from Escherichia coli (enzyme)
chain: MIYPDEAMLYAPVEWHDCSEGFEDIRYEKSTDGIAKITINRPQVRNAFRPLTVKEMIQALADARYDDNIGVIILTGAGDKAFCSGGDQKVRGDYGGYKDDSGVHHLNVLDFQRQIRTCPKPVVAMVAGYSIGGGHVLHMMCDLTIAADNAIFGQTGPKVGSFDGGWGASYMARIVGQKKAREIWFLCRQYDAKQALDMGLVNTVVPLADLEKETVRWCREMLQNSPMALRCLKAALNADCDGQAGLQELAGNATMLFYMTEEGQEGRNAFNQKRQPDFSKFKRNP
notes: DHNA-CoA synthase MenB, Escherichia coli; Crystallised with the small-molecule product analog HNA-CoA; also called ecMenB; MenB
Turning to B3, the “stoichiometry N” value in data set [5] stood at 6.

B4: ecMenB (Escherichia coli K-12; R267A) (protein)
chain: MIYPDEAMLYAPVEWHDCSEGFEDIRYEKSTDGIAKITINRPQVRNAFRPLTVKEMIQALADARYDDNIGVIILTGAGDKAFCSGGDQKVRGDYGGYKDDSGVHHLNVLDFQRQIRTCPKPVVAMVAGYSIGGGHVLHMMCDLTIAADNAIFGQTGPKVGSFDGGWGASYMARIVGQKKAREIWFLCRQYDAKQALDMGLVNTVVPLADLEKETVRWCREMLQNSPMALRCLKAALNADCDGQAGLQELAGNATMLFYMTEEGQEGANAFNQKRQPDFSKFKRNP
notes: as for B1
As for B4, in data set [4], the Michaelis constant (Km) stood at 16.6 ± 1.0 µM, the catalytic constant (kcat) stood at 0.00267 ± 0.000167 s⁻¹ and the specificity constant (kcat/Km) was 160 ± 20 M⁻¹ s⁻¹.

B5: 1,4-dihydroxy-2-naphthoyl coenzyme A (DHNA-CoA) synthase from Synechocystis sp. PCC 6803 (enzyme)
chain: MDWHIAKHYDDILYYKAGGIAKIVINRPHKRNAFRPQTVFELYDAFCNAREDNRIGVVLLTGAGPHSDGKYAFCSGGDQSVRGEGGYIDDQGTPRLNVLDLQRLIRSMPKVVIALVAGYAIGGGHVLHLVCDLTIAADNAIFGQTGPKVGSFDGGFGSSYLARIVGQKKAREIWYLCRQYSAQEAERMGMVNTVVPVDRLEEEGIQWAKEILSKSPLAIRCLKAAFNADCDGQAGLQELAGNATLLYYMTEEGSEGKQAFLEKRPPDFSQYPWLP
notes: DHNA-CoA synthase MenB, Synechocystis sp; PCC 6803; wild type; Crystallised with the small-molecule product analogs HNA-CoA or SA-CoA; also called scMenB; MenB
Regarding B5, in data set [6], the “stoichiometry N” value is 6.
